B1: INTS3 (parent)
chain: FSDDEEDLNSKGKKREFRFHPIKE
B2: KRT18 (parent)
chain: RAQYDELARKNREELDKYWSQQIE
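Further: lentivirally expressed fusions sorted by FACS into six bins by GFP to DsRed ratio, PSI derived from sequencing read proportions per bin multiplied by bin number.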

Variants of B1 are the subject of one series. The experiment in a line: protein stability index of a GFP-peptide fusion (GPS, HEK-293T) (PSI 1-6); higher = more stable. Conditions: c terminus: a fixed tail appended.
For the variant HSDDEEDLNSKGKKREFRFHPIKE [F1H], the protein stability index came out at 2.72. Still for that read-out and setting: to NSDDEEDLNSKGKKREFRFHPIKE [F1N] belongs 3.24.

For DSDDEEDLNSKGKKREFRFHPIKE [F1D], the protein stability index worked out at 2.84. With WSDDEEDLNSKGKKREFRFHPIKE [F1W], the protein stability index turned out to be 2.84.

As to LSDDEEDLNSKGKKREFRFHPIKE [F1L], the protein stability index stood at 2.69. On the same count and under the same terms, with RSDDEEDLNSKGKKREFRFHPIKE [F1R] the figure was 2.71. On the same count and under the same terms, with PSDDEEDLNSKGKKREFRFHPIKE [F1P] the figure was 3.19. The same measure, in the same setting: with QSDDEEDLNSKGKKREFRFHPIKE [F1Q] the figure was 3; with ESDDEEDLNSKGKKREFRFHPIKE [F1E], 3.36; with ASDDEEDLNSKGKKREFRFHPIKE [F1A], 2.89.

For VSDDEEDLNSKGKKREFRFHPIKE [F1V], the protein stability index came to 3.29. The same measure, in the same setting: with GSDDEEDLNSKGKKREFRFHPIKE [F1G] the figure was 2.99; with YSDDEEDLNSKGKKREFRFHPIKE [F1Y], 2.94. Still for that read-out and setting: to KSDDEEDLNSKGKKREFRFHPIKE [F1K] belongs 2.33; to TSDDEEDLNSKGKKREFRFHPIKE [F1T], 3.05.

With ISDDEEDLNSKGKKREFRFHPIKE [F1I], the protein stability index turned out to be 3.2. On the same count and under the same terms, with MSDDEEDLNSKGKKREFRFHPIKE [F1M] the figure was 2.58; with SSDDEEDLNSKGKKREFRFHPIKE [F1S], 2.32; with CSDDEEDLNSKGKKREFRFHPIKE [F1C], 2.73.

Consider FCDDEEDLNSKGKKREFRFHPIKE [S2C], for which the protein stability index was 2.8.

Turning to FADDEEDLNSKGKKREFRFHPIKE [S2A], the protein stability index was found to be 3.14. On the same count and under the same terms, to FPDDEEDLNSKGKKREFRFHPIKE [S2P] belongs 2.53. Still for that read-out and setting: with FTDDEEDLNSKGKKREFRFHPIKE [S2T] the figure was 2.88. Still for that read-out and setting: to FEDDEEDLNSKGKKREFRFHPIKE [S2E] belongs 3.39; to FLDDEEDLNSKGKKREFRFHPIKE [S2L], 2.47; to FWDDEEDLNSKGKKREFRFHPIKE [S2W], 2.33. In the case of FHDDEEDLNSKGKKREFRFHPIKE [S2H], the protein stability index came to 2.3. The same measure, in the same setting: with FGDDEEDLNSKGKKREFRFHPIKE [S2G] the figure was 3.22; with FFDDEEDLNSKGKKREFRFHPIKE [S2F], 2.31. Turning to FDDDEEDLNSKGKKREFRFHPIKE [S2D], the protein stability index came to 3.34. Take FQDDEEDLNSKGKKREFRFHPIKE [S2Q]: the protein stability index came out at 2.5. With FRDDEEDLNSKGKKREFRFHPIKE [S2R], the protein stability index turned out to be 2.14.

FNDDEEDLNSKGKKREFRFHPIKE [S2N]: the protein stability index came to 2.92. The same measure, in the same setting: to FIDDEEDLNSKGKKREFRFHPIKE [S2I] belongs 2.39. On the same count and under the same terms, with FYDDEEDLNSKGKKREFRFHPIKE [S2Y] the figure was 2.43; with FKDDEEDLNSKGKKREFRFHPIKE [S2K], 3.23.

For the variant FMDDEEDLNSKGKKREFRFHPIKE [S2M], the protein stability index amounted to 2.6. Still for that read-out and setting: to FVDDEEDLNSKGKKREFRFHPIKE [S2V] belongs 2.2; to FSDHEEDLNSKGKKREFRFHPIKE [D4H], 2.95. Still for that read-out and setting: to FSDSEEDLNSKGKKREFRFHPIKE [D4S] belongs 2.75; to FSDIEEDLNSKGKKREFRFHPIKE [D4I], 2.38; to FSDEEEDLNSKGKKREFRFHPIKE [D4E], 3.05.

On to FSDMEEDLNSKGKKREFRFHPIKE [D4M], for which the protein stability index came out at 2.4. Still for that read-out and setting: with FSDGEEDLNSKGKKREFRFHPIKE [D4G] the figure was 2.52.

Turning to FSDCEEDLNSKGKKREFRFHPIKE [D4C], the protein stability index is 2.4. Still for that read-out and setting: to FSDAEEDLNSKGKKREFRFHPIKE [D4A] belongs 2.72; to FSDFEEDLNSKGKKREFRFHPIKE [D4F], 2.19. On to FSDPEEDLNSKGKKREFRFHPIKE [D4P], for which the protein stability index was 2.53. In the case of FSDLEEDLNSKGKKREFRFHPIKE [D4L], the protein stability index stood at 2.43. Still for that read-out and setting: to FSDREEDLNSKGKKREFRFHPIKE [D4R] belongs 1.85; to FSDNEEDLNSKGKKREFRFHPIKE [D4N], 2.82.

Turning to FSDKEEDLNSKGKKREFRFHPIKE [D4K], the protein stability index was 2.02. On the same count and under the same terms, with FSDQEEDLNSKGKKREFRFHPIKE [D4Q] the figure was 2.9; with FSQDEEDLNSKGKKREFRFHPIKE [D3Q], 2.58. Same read-out and setting: with FSLDEEDLNSKGKKREFRFHPIKE [D3L] the figure was 2.23; with FSPDEEDLNSKGKKREFRFHPIKE [D3P], 2.29. Still for that read-out and setting: with FSCDEEDLNSKGKKREFRFHPIKE [D3C] the figure was 2.42; with FSADEEDLNSKGKKREFRFHPIKE [D3A], 2.19. Regarding FSNDEEDLNSKGKKREFRFHPIKE [D3N], the protein stability index is 2.57. Still for that read-out and setting: with FSKDEEDLNSKGKKREFRFHPIKE [D3K] the figure was 2.59; with FSIDEEDLNSKGKKREFRFHPIKE [D3I], 2.09; with FSFDEEDLNSKGKKREFRFHPIKE [D3F], 2.38.

In the case of FSHDEEDLNSKGKKREFRFHPIKE [D3H], the protein stability index stood at 2.69. Same read-out and setting: to FSYDEEDLNSKGKKREFRFHPIKE [D3Y] belongs 2.32; to FSTDEEDLNSKGKKREFRFHPIKE [D3T], 2.9. Still for that read-out and setting: to FSWDEEDLNSKGKKREFRFHPIKE [D3W] belongs 2.45; to FSGDEEDLNSKGKKREFRFHPIKE [D3G], 2.85; to FSVDEEDLNSKGKKREFRFHPIKE [D3V], 2.61. On the same count and under the same terms, with FSMDEEDLNSKGKKREFRFHPIKE [D3M] the figure was 2.55. In the case of FSEDEEDLNSKGKKREFRFHPIKE [D3E], the protein stability index is 2.61. The same measure, in the same setting: to FSRDEEDLNSKGKKREFRFHPIKE [D3R] belongs 2.19; to FSSDEEDLNSKGKKREFRFHPIKE [D3S], 2.55.

In the next series the parent is B2. Described as above. The note with it: c terminus: a fixed tail appended.
Regarding RAQYDELARKNREKLDKYWSQQIE [E14K], the protein stability index worked out at 2.94. On the same count and under the same terms, with RAQYDELARKNREELDKYWKQQIE [S20K] the figure was 1.22; with IAQYDELARKNREELDKYWSQQIE [R1I], 2.79; with CAQYDELARKNREELDKYWSQQIE [R1C], 2.19.

As for RAQYDELERKNREELDKYWSQQIE [A8E], the protein stability index worked out at 4.57. The same measure, in the same setting: to RAQYDELFRKNREELDKYWSQQIE [A8F] belongs 3.41; to RAQYDELGRKNREELDKYWSQQIE [A8G], 3.72; to RAQYDELWRKNREELDKYWSQQIE [A8W], 1.31. Still for that read-out and setting: with RAQYDELARKNREELDKYWSQQIG [E24G] the figure was 3.77. Still for that read-out and setting: with RAQYDELARKNREELDKYWSQQIP [E24P] the figure was 3.87; with RAQYDELARKNREELDKYWSQGIE [Q22G], 3.68.

On to RAQYDELARKNSEELDKYWSQQIE [R12S], for which the protein stability index was found to be 4.56. Regarding RAQYDELARKNREELAKYWSQQIE [D16A], the protein stability index is 2.56.

In the case of RAQYDELARKNREELDKSWSQQIE [Y18S], the protein stability index worked out at 4.51.

Take RAQYDELARKNREELDKKWSQQIE [Y18K]: the protein stability index is 4.24.

Turning to RAQYDELARYNREELDKYWSQQIE [K10Y], the protein stability index amounted to 4.15. On the same count and under the same terms, to RAQYDELARCNREELDKYWSQQIE [K10C] belongs 3.02.

With RAQYDELARKNREECDKYWSQQIE [L15C], the protein stability index amounted to 3.18. The same measure, in the same setting: with RHQYDELARKNREELDKYWSQQIE [A2H] the figure was 3.23. As to RACYDELARKNREELDKYWSQQIE [Q3C], the protein stability index was 2.51. Same read-out and setting: with RAQYDELARKSREELDKYWSQQIE [N11S] the figure was 4.15; with RAQYDELARKIREELDKYWSQQIE [N11I], 2.37.
